Numbering of substitutions follows the chain as printed. Numbers in names are those of the source. No end group written: not given here.

From patent US20090011988A1 (Genentech, published 2009) come the findings set out here.

Sequences and labels used below:
T1: human IGFBP-1 (human, UniProt P08833 26-259)
T1 sequence (looked up): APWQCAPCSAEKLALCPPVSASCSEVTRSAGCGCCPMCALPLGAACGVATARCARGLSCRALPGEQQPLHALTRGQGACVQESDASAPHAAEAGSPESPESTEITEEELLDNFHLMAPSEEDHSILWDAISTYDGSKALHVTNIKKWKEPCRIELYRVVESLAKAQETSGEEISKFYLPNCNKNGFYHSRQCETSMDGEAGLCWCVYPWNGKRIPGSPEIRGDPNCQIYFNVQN

B1: 23B3.2 (peptide)
peptide displayed on M13 phage as a fusion to g8p: EVLLCSDGPQLYLCELYA
modifications: not fully specified (bridges); cysteine pairing not given here; also: displayed on phage coat protein g8
notes: whole phage particle in the assay; also called peptide-phage clone 23B3.2 (g8 display)
B2: 23D3.5 (peptide)
peptide displayed on M13 phage as a fusion to g8p: AMWVCVSDWETVEECIQYMY
modifications: not fully specified (bridges); cysteine pairing not given here; also: displayed on phage as g8p fusion
notes: whole phage particle in the assay; also called peptide-phage clone 23D3.5 (g8 display)
B3: 23B3.6 (peptide)
peptide displayed on M13 phage as a fusion to g8p: EVLLCSDGPQLYLCELYA
modifications: not fully specified (bridges); cysteine pairing not given here; also: displayed on phage coat protein g8
notes: whole phage particle in the assay; also called peptide-phage clone 23B3.6 (g8 display)
B4: 23B3.4 (peptide)
peptide displayed on M13 phage as a fusion to g8p: SGVECVWGPQWGFCVEEY
modifications: not fully specified (bridges); cysteine pairing not given here; also: displayed on phage coat protein g8
notes: whole phage particle in the assay; also called peptide-phage clone 23B3.4 (g8 display)
B5: 23D3.4 (peptide)
peptide displayed on M13 phage as a fusion to g8p: AMWVCVSDWETVEECIQYMY
modifications: not fully specified (bridges); cysteine pairing not given here; also: displayed on phage coat protein g8
notes: whole phage particle in the assay; also called peptide-phage clone 23D3.4 (g8 display)
B6: 23B3.1 (peptide)
peptide displayed on M13 phage as a fusion to g8p: TGVDCQCGPVHCVCMDWA
notes: whole phage particle in the assay; also called peptide-phage clone 23B3.1 (g8 display)
B7: 23B3.7 (peptide)
peptide displayed on M13 phage as a fusion to g8p: GDVECIEGPWGELCVWAD
modifications: not fully specified (bridges); cysteine pairing not given here; also: displayed on phage coat protein g8
notes: whole phage particle in the assay; also called peptide-phage clone 23B3.7 (g8 display)
B8: 23A3.4 (peptide)
peptide displayed on M13 phage as a fusion to g8p: EPWLCQYYEAAMLYLCWEEG
modifications: not fully specified (bridges); cysteine pairing not given here; also: displayed on phage coat protein g8
notes: whole phage particle in the assay; also called peptide-phage clone 23A3.4 (g8 display)
B9: 23B3.5 (peptide)
peptide displayed on M13 phage as a fusion to g8p: DKEVCYLGPETWLCFWWP
modifications: not fully specified (bridges); cysteine pairing not given here; also: displayed on phage coat protein g8
notes: whole phage particle in the assay; also called peptide-phage clone 23B3.5 (g8 display)
B10: 23D3.1 (peptide)
peptide displayed on M13 phage as a fusion to g8p: FGGWSCQPTWVDVYVCNFEE
modifications: not fully specified (bridges); cysteine pairing not given here; also: displayed on phage coat protein g8
notes: whole phage particle in the assay; also called peptide-phage clone 23D3.1 (g8 display)
B11: 23A3.1 (peptide)
peptide displayed on M13 phage as a fusion to g8p: EPWLCQYYEAAMLYLCWEEG
modifications: not fully specified (bridges); cysteine pairing not given here; also: displayed on phage coat protein g8
notes: whole phage particle in the assay; also called peptide-phage clone 23A3.1 (g8 display)
B12: 23D3.2 (peptide)
peptide displayed on M13 phage as a fusion to g8p: AMWVCVSDWETVEECIQYMY
modifications: not fully specified (bridges); cysteine pairing not given here; also: displayed on phage coat protein g8
notes: whole phage particle in the assay; also called peptide-phage clone 23D3.2 (g8 display)
B13: 23D3.6 (peptide)
peptide displayed on M13 phage as a fusion to g8p: TNWFFVCESGHQDICWLAEE
modifications: not fully specified (bridges); cysteine pairing not given here; also: displayed on phage as g8p fusion
notes: whole phage particle in the assay; also called peptide-phage clone 23D3.6 (g8 display)
B14: 23D3.3 (peptide)
peptide displayed on M13 phage as a fusion to g8p: AMWVCVSDWETVEECIQYMY
modifications: not fully specified (bridges); cysteine pairing not given here; also: displayed on phage coat protein g8
notes: whole phage particle in the assay; also called peptide-phage clone 23D3.3 (g8 display)
B15: IGF-1 G42A displayed on phage (ligand, not shown: large carriers; small tags and cut ends)
chain: SPETLCGAELVDALQFVCGDRGFYFNKPTGYGSSSRRAPQTAIVDECCFRSCDLRRLEMYCAPLKPAKSV
notes: G1S-A70V background
B16: IGF-1 I43A displayed on phage (ligand, not shown: large carriers; small tags and cut ends)
chain: B15 chain with A42G, I43A
notes: G1S-A70V background
B17: IGF-1 R50A displayed on phage (ligand, not shown: large carriers; small tags and cut ends)
chain: B15 chain with A42G, R50A
notes: G1S-A70V background
B18: IGF-1 R55A displayed on phage (ligand, not shown: large carriers; small tags and cut ends)
chain: B15 chain with A42G, R55A
modifications: not fully specified; ends and bridges not checked
notes: G1S-A70V background
B19: IGF-1 S51A displayed on phage (ligand, not shown: large carriers; small tags and cut ends)
chain: B15 chain with A42G, S51A
modifications: not fully specified; ends and bridges not checked
notes: G1S-A70V background
B20: IGF-1 V44A displayed on phage (ligand, not shown: large carriers; small tags and cut ends)
chain: B15 chain with A42G, V44A
notes: G1S-A70V background
B21: IGF-1 L54A displayed on phage (ligand, not shown: large carriers; small tags and cut ends)
chain: B15 chain with A42G, L54A
modifications: ends and bridges not checked; also: displayed on M13 phage, fused to g3p fragment (249-406) via amber-codon residue
notes: G1S-A70V background
B22: IGF-1 M59A displayed on phage (ligand, not shown: large carriers; small tags and cut ends)
chain: B15 chain with A42G, M59A
modifications: not fully specified; ends and bridges not checked
notes: G1S-A70V background
B23: IGF-1 L57A displayed on phage (ligand, not shown: large carriers; small tags and cut ends)
chain: B15 chain with A42G, L57A
modifications: not fully specified; ends and bridges not checked
notes: G1S-A70V background
B24: IGF-1 R56A displayed on phage (ligand, not shown: large carriers; small tags and cut ends)
chain: B15 chain with A42G, R56A
modifications: not fully specified; ends and bridges not checked
notes: G1S-A70V background
B25: IGF-1 T41A displayed on phage (ligand, not shown: large carriers; small tags and cut ends)
chain: B15 chain with T41A, A42G
notes: G1S-A70V background
B26: Ala(1-3)-IGF-1 displayed on phage (ligand, bacteriophage M13)
chain: AAATLCGAELVDALQFVCGDRGFYFNKPTGYGSSSRRAPQTGIVDECCFRSCDLRRLEMYCAPLKPAKSVSGGGSGSGDFDYEKMANANKGAMTENADENALQSDAKGKLDSVATDYGAAIDGFIGDVSGLANGNGATGDFAGSNSQMAQVGDGDNSPLMNNFRQYLPSLPQSVECRPFVFSAGKPYEFSIDCDKINLFRGVFAFLLYVATFMYVFSTFANILRNKES
notes: range 249-406
B27: IGF-1 P2A displayed on phage (ligand, bacteriophage M13)
chain: B26 chain with A1S, A3E
notes: range 249-406; G1S-A70V background

T2 sequence (P17936 28-291 limits assumed): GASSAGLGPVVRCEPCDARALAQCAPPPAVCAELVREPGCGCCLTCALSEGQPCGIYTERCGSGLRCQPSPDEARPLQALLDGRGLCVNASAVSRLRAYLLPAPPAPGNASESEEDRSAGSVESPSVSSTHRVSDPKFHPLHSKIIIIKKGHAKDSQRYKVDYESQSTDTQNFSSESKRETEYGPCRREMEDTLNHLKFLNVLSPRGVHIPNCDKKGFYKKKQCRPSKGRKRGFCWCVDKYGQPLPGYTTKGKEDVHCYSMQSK

One assay concerns the target T2, recombinant human IGFBP-3 (human, UniProt P17936 28-291). In words: phage ELISA (IGF-blocking phage assay): g8 peptide-phage on an IGFBP-3-coated plate, without and with IGF-1; OD492. As to the method:
The plates were then washed ten times, as above, and a solution of rabbit anti-phage antibody mixed with a goat-anti-rabbit conjugate of horseradish peroxidase was added. After an incubation of 1 hour at room temperature, the plates were developed with a chromogenic substrate, o-phenylenediamine (Sigma). The reaction was stopped with addition of ½ volume of 2.5 M H₂SO₄. Optical density at 490 nm was measured on a spectrophotometric plate reader.
In each case, the phagemid clone was grown from a single colony overnight at 37° C. in a culture volume of 5 ml. The phage particles were prepared as described above.
For orientation: ELISA stands for enzyme-linked immunosorbent assay.
Take B1: the binding result was “binds”.

In the case of B2, the binding result was “binds”.

Turning to B3, the binding result is on record as “binds”.

With B4, the binding result was “binds”.

For the molecule B5, the binding result is recorded as “binds”.

Regarding B6, the binding result was “binds”.

Regarding B7, the binding result is “binds”.

Turning to B8, the binding result is “binds”.

Consider B9, for which the binding result was “binds”.

For the molecule B10, the binding result is given as “binds”.

B11: the binding result is “binds”.

In the case of B12, the binding result is given as “binds”.

Regarding B13, the binding result is “binds”.

Regarding B14, the binding result is given as “binds”.

Another assay has as its target T2, recombinant human IGFBP-3. In words: competitive phage ELISA. The method, then:
(§1) E. coli cells (XL1-Blue, Stratagene) freshly transformed with phagemid vector were grown overnight in 5 mL 2YT medium (Sambrook et al., supra) in the presence of M13-VCS helper phage (Stratagene). Phage particles were harvested and resuspended in PBS buffer as described in Lowman, H. B., “Phage Display of Peptide Libraries on Protein Scaffolds,” in Cabilly, S. (ed.), Combinatorial Peptide Library Protocols (Humana Press Inc.: Totowa, N.J., 1998), pp. 249-264. Then phage concentrations were normalized to yield a maximal ELISA signal of 0.2-0.4 for each mutant (Lowman, in Cabilly, S. (ed.), supra). Threefold serial dilutions of soluble competitor were prepared on non-absorbent microtiter plates (Nunc, F, 96 wells) with binding buffer (0.5% TWEEN 20%/PBS) containing phage at the previously determined concentrations. […] After blocking, the plates containing immobilized target were washed with 0.05% TWEEN™/PBS buffer and subsequently incubated with 80 μl/well of the premixed phage-competitor solutions for 1 hour at room temperature. […] IC₅₀ values were determined by fitting the binding data to a generic saturation curve (Lowman, in Cabilly, S. (ed.), supra). At least two individual clones of each IGF-1 mutant were assayed. Numbers in Table XIII represent mean±standard deviation of individually assessed IC₅₀ values.
Usually IC50 stands for the concentration that gives 50% inhibition. For the molecule B15, the IC50 came out at 0.53 nM.

As to B16, the IC50 was determined as 1.17 nM.

On to B17, for which the IC50 came to 0.64 nM.

Turning to B18, the half-maximal inhibitory concentration (IC50) worked out at 0.66 nM.

For the molecule B19, the IC50 is 0.65 nM.

Turning to B20, the concentration for half-maximal inhibition (IC50) was 1.03 nM.

On to B21, for which the IC50 came to 1.83 nM.

On to B22, for which the IC50 amounted to 0.74 nM.

Regarding B23, the IC50 was found to be 1.78 nM.

Regarding B24, the IC50 came out at 1 nM.

In the case of B25, the IC50 stood at 0.43 nM.

For B26, the IC50 is 1.12 nM.

Turning to B27, the IC50 was 0.81 nM.

In another assay the target is T1, human IGFBP-1. Kind of assay: competitive phage ELISA. As to the method: as §1
Consider B15, for which the IC50 turned out to be 15.7 nM.

Molecule B16 came in with an IC50 of 31.3 nM.

Take B17: the IC50 is 16.2 nM.

For the molecule B18, the IC50 came to 9 nM.

Take B19: the IC50 turned out to be 13.4 nM.

The molecule B20 registered an IC50 of 18.8 nM.

B21 registered an IC50 of 23.1 nM.

In turn, B22 came in with an IC50 of 13.1 nM.

Molecule B23 showed an IC50 of 21.8 nM.

Molecule B24 gave an IC50 of 13.1 nM.

On to B25, for which the IC50 is 13.7 nM.

B26 showed an IC50 of 90.4 nM.

The molecule B27 showed an IC50 of 11 nM.
